Legend:
[1] = target: T1, SCL27 (His-SCL27) (Arabidopsis thaliana) (UniProt Q7XJM8); assay: EMSA; conditions: 1 nM Cy5-DNA, 20 uL binding buffer (composition not given, ref 60), 30 C 20 min; 6% native PAGE, 0.5x TBE, 4 C
T1 sequence: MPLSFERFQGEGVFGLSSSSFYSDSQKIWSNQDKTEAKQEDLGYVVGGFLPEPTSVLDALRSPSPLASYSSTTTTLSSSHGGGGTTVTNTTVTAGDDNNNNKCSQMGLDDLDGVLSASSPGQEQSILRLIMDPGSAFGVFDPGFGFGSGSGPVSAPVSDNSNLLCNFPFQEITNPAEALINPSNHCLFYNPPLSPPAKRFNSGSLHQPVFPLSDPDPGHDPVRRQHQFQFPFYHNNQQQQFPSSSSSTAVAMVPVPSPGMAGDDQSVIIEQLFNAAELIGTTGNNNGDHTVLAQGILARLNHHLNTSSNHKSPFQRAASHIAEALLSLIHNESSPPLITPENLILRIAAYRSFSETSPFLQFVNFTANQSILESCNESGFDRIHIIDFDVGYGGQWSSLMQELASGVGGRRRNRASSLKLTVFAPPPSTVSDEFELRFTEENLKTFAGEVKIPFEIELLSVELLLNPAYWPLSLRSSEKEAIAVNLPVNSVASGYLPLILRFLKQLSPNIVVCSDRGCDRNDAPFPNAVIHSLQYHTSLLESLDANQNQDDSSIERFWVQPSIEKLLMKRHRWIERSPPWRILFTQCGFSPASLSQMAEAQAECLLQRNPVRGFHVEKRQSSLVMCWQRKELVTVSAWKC

SCL27 (His-SCL27) = target: T2, SCL27 (His-SCL27) (Arabidopsis thaliana, UniProt Q7XJM8 1-640); assay: EMSA; 1 nM probe; 1 nM Cy5-DNA, 20 uL binding buffer (composition not given, ref 60), 30 C 20 min; 6% native PAGE, 0.5x TBE, 4 C; conditions: protein: recombinant, tags: His (pET28b)
T2 sequence: T1 sequence

With “AGCCAGTGGCGATAAGCCTGTTATAGGCATATGAACAAGACAATGGAGGAGGAGGAGGAGATGGTCTAGAAACCGTGACGACGGAGGAGGAAAAGAAAAGAGATGAAGTAGAAGAAGAAAATAAAATAAAATAGAGGCAAAAATGGAAATTTTCATTGGAATTTTGCAACTTTTAGAAATTGTAGAAGATGAAGAGAGCTGTGTGATCCAAAAGTGCTTATCGCCACTGGCT (double strand) [PORC promoter fragment III]” the binding [1] was “binds”.

With “AGCCAGTGGCGATAAGGATTAAAGAAACGGGTGGAATACACAAGAACAATGTATATGCAAGATTGCAGTGGTGTCGTTGATTACTCTCAATTTGATGATAAGATTCAAATTTGATATGAGTTTGGAGAAGAAGAAGATGACGAAGAGATCATTACTTGGCGATGAGACGAACAAGCAGGAAAGTATTGCCTACGCTTCCTGAACTTCATGAGATGCTTATCGCCACTGGCT (double strand) [PORC promoter fragment I]” the binding [1] was “no binding”.

B1: W (62-bp GT element fragment) (dsDNA)
DNA 1: GGAAAAGAAAAGAGATGAAGTAGAAGAAGAAAATAAAATAAAATAGAGGCAAAAATGGAAAT
DNA 2: ATTTCCATTTTTGCCTCTATTTTATTTTATTTTCTTCTTCTACTTCATCTCTTTTCTTTTCC
B1: binds (SCL27 (His-SCL27); three G(A/G)(A/T)AA(A/T) GT elements, mutant).

B2: M (62-bp mutated GT element fragment) (dsDNA)
DNA 1: CCCGGGGAAAAGAGATGAAGTAGAAGAACCCGGGAAAATAAAATAGAGGCAAAAATCCCGGG
DNA 2: CCCGGGATTTTTGCCTCTATTTTATTTTCCCGGGTTCTTCTACTTCATCTCTTTTCCCCGGG
B2: no binding (SCL27 (His-SCL27)).

Reference: paper PMC4125095, “Arabidopsis miR171-Targeted Scarecrow-Like Proteins Bind to GT cis-Elements and Mediate Gibberellin-Regulated Chlorophyll Biosynthesis under Light Conditions”
